Results from patent US20230220381 (published 2023).

B1: TBA1F (ssDNA)
DNA: CGTCGAGGCCCCTTCTTCTTCGTCTTCTTCTTAGGAGGTGGTGTGGTTGGTTTTACACGTCACGCCTTTTTTTTT
modifications: branched DNA-encoded construct: code strand with branching unit BU; aptamer branch …
B2: NCL (ssDNA)
DNA: CGTCGAGGCCCCTTCTTCTTCGTCTTCTTCTTAGGATACACGTCACGCCTTTTTTTTT

Assays:
Thrombin [1] = molecular target: T1, Thrombin (Homo sapiens, UniProt P00734;P00734 P00734:328-363,P00734:364-622); assay: FP; no binding observed with up to 2 uM thrombin
Thrombin [2] = molecular target: T1, Thrombin; assay: FP; 20 mM Tris, 140 mM NaCl, 20 mM KCl, 1 mM CaCl2, 1 mM MgCl2, 0.1% Triton X, room temperature

| Binder | binding result (Thrombin [1]) | Kd (Thrombin [2]) [nM] |
| --- | --- | --- |
| GGTTGGTGTTGTTTG (ssDNA) [NCS] | no binding |  |
| B1 |  | 13 |
| B2 | no binding |  |
| GGTTGGTGTGGTTGG (ssDNA) [PC (positive control TBA 15mer)] |  | 10 |
